The source of these data is US20240002544A1 (NOVIMMUNE, published 2024).

Where a chain is given by its changes, count along the chain named.

B1: AI3AC84/N (bispecific antibody, human IgG1, kappa, lambda, L234A L235A)
heavy: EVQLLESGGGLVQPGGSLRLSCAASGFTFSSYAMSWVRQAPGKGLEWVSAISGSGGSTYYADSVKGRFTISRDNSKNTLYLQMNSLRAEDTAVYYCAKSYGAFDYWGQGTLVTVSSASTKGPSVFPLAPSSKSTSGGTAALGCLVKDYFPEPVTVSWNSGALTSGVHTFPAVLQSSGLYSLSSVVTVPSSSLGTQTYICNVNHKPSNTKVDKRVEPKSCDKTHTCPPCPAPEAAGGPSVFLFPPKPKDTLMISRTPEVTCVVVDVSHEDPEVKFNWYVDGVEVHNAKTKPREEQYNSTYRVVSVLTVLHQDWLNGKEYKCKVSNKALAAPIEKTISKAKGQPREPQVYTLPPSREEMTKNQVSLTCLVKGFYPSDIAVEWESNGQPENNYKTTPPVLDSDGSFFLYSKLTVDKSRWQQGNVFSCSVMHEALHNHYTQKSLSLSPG
light 1: not shown
light 2: QSVLTQPPSVSAAPGQKVTISCSGSSSNIGIGLVSWYQQLPGTAPKLLIYNVNTRPSGIPDRFSGSKSGTSATLGITGLQTGDEADYYCGTWDFSYRVDFGGGTKLTVLGQPKAAPSVTLFPPSSEELQANKATLVCLISDFYPGAVTVAWKADSSPVKAGVETTTPSKQSNNKYAASSYLSLTPEQWKSHRSYSCQVTHEGSTVEKTVAPTECS
notes: κλ-body, IgG1 LALAPA; also called AI3 (AI_1H5) kappa / AC84 (AC1g6_1F1) lambda
B2: AI5AC84/N (bispecific antibody, human IgG1, kappa, lambda, L234A L235A)
heavy: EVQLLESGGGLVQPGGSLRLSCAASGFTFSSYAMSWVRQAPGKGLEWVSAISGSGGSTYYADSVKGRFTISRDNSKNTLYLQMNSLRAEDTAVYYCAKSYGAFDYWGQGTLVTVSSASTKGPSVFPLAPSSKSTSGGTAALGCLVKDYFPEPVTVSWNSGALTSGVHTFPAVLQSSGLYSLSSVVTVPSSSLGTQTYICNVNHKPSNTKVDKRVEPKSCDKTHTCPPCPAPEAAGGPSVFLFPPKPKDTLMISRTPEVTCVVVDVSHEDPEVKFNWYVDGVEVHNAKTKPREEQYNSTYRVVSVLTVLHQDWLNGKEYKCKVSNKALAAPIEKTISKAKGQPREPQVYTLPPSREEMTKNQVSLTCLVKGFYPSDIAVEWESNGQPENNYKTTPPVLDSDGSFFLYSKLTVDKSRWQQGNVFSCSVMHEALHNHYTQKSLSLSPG
light 1: DIVMTQTPLSLSVTPGQPASISCKSSGDLLTFEGKTYLYWYLQKPGQPPQLLIYEVSNRFSGVPDRFSGSGSGTDFTLKISRVEAEDVGVYYCMQAHSTRFAFTFGQGTKVEIKRTVAAPSVFIFPPSDEQLKSGTASVVCLLNNFYPREAKVQWKVDNALQSGNSQESVTEQDSKDSTYSLSSTLTLSKADYEKHKVYACEVTHQGLSSPVTKSFNRGEC
light 2: B1 light 2
notes: κλ-body, IgG1 LALAPA; also called AI5 (AI_1A9) kappa / AC84 (AC1g6_1F1) lambda
B3: AI10AC84/N (bispecific antibody, human IgG1, kappa, lambda, L234A L235A)
heavy: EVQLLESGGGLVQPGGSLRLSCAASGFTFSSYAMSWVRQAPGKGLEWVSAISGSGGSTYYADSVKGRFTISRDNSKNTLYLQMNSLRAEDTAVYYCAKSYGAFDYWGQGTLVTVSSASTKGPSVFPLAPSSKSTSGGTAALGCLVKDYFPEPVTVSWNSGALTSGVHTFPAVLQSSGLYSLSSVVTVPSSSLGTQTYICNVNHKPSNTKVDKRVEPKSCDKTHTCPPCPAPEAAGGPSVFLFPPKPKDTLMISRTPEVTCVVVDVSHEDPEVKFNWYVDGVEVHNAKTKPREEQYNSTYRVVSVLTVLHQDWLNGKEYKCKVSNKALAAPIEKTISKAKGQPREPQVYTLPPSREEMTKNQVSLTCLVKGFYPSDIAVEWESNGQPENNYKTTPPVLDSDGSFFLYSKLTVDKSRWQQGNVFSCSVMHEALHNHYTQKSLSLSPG
light 1: B2 light 1 with T31E, E33A, S98G, T99S, R100K, F101I, A102G
light 2: B1 light 2
notes: κλ-body, IgG1 LALAPA; also called AI10 (AI_1B6) kappa / AC84 (AC1g6_1F1) lambda
B4: AI5O30/N (bispecific antibody, human IgG1, kappa, lambda, L234A L235A)
heavy: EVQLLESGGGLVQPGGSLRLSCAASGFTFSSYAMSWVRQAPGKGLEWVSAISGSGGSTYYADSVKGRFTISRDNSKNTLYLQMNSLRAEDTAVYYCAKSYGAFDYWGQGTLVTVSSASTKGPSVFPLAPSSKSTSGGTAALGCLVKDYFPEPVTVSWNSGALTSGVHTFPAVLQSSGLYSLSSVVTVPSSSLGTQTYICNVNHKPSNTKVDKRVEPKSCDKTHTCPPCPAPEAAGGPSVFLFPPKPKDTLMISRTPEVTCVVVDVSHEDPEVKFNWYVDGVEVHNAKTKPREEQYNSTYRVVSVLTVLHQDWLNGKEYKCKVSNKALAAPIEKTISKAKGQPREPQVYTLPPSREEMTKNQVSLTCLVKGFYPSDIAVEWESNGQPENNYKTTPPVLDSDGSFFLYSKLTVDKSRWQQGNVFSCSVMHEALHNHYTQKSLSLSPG
light 1: B2 light 1
light 2: not shown
notes: κλ-body, huIgG1-LALAPA; also called AI5 (AI_1A9) kappa / O30 (O1b6_1D1) lambda
B5: AI5O35/N (bispecific antibody, human IgG1, kappa, lambda, L234A L235A)
heavy: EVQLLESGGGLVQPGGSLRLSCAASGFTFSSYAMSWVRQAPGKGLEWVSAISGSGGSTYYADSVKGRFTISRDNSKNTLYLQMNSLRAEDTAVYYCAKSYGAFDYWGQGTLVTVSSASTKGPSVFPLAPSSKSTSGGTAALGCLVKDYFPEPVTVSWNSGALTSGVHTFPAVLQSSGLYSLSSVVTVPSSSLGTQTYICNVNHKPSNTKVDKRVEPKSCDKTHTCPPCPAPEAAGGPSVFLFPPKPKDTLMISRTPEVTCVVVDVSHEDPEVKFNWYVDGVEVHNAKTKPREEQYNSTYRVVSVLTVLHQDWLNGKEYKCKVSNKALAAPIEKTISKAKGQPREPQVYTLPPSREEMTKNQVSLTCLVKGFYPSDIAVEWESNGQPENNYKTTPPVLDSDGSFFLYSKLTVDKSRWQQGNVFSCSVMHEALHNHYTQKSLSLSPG
light 1: B2 light 1
light 2: QPVLTQPVSLSASPGASVSLTCTLRSDIRVRDYRIFWYQQKPGSPPQYLLRYKTDSDKQQGSGVPSRFSGSKDASANAGILLISGLQSEDEADYYCMIWHRTTGTSLVFGGGTKLTVLGQPKAAPSVTLFPPSSEELQANKATLVCLISDFYPGAVTVAWKADSSPVKAGVETTTPSKQSNNKYAASSYLSLTPEQWKSHRSYSCQVTHEGSTVEKTVAPTECS
notes: κλ-body, huIgG1-LALAPA; also called AI5 (AI_1A9) kappa / O35 (Ob8_A10) lambda
B6: AI5O41/N (bispecific antibody, human IgG1, kappa, lambda, L234A L235A)
heavy: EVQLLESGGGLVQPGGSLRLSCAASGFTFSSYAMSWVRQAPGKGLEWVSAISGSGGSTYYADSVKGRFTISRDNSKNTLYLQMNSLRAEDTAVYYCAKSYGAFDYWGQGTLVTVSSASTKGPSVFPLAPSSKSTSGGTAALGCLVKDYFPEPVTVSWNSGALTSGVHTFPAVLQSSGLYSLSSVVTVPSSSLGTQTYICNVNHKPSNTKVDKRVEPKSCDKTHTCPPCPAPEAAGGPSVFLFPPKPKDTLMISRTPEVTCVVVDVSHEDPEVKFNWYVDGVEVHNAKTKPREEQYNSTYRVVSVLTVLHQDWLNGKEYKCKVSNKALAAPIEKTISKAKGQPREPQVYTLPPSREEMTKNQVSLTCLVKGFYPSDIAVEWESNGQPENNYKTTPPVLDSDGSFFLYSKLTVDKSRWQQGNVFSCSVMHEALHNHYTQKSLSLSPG
light 1: B2 light 1
light 2: SYVLTQPPSVSVAPGKTARITCGGNKIGHRAVHWYQQKPGQAPVLVIYYTYERPSGIPERFSGSNSGNTATLTISRVEAGDEADYYCQVWDWYSEGGVVFGGGTKLTVLGQPKAAPSVTLFPPSSEELQANKATLVCLISDFYPGAVTVAWKADSSPVKAGVETTTPSKQSNNKYAASSYLSLTPEQWKSHRSYSCQVTHEGSTVEKTVAPTECS
notes: κλ-body, huIgG1-LALAPA; also called AI5 (AI_1A9) kappa / O41 (Ob9_1A11) lambda
B7: AI10O41/N (bispecific antibody, human IgG1, kappa, lambda, L234A L235A)
heavy: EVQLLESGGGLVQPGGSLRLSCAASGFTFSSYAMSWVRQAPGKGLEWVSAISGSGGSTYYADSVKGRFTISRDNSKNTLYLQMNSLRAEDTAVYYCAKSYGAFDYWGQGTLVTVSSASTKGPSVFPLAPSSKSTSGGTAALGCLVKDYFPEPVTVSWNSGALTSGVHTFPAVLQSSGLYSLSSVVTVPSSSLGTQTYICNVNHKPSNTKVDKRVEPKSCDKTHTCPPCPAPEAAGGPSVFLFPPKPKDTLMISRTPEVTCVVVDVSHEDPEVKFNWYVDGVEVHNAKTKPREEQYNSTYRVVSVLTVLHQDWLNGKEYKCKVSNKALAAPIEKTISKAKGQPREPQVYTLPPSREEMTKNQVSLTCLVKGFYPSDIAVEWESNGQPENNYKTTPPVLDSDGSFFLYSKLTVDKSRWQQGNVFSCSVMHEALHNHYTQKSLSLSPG
light 1: B2 light 1 with T31E, E33A, S98G, T99S, R100K, F101I, A102G
light 2: B6 light 2
notes: κλ-body, huIgG1-LALAPA; also called AI10 (AI_1B6) kappa / O41 (Ob9_1A11) lambda
B8: AI10O30/N (bispecific antibody, human IgG1, kappa, lambda, L234A L235A)
heavy: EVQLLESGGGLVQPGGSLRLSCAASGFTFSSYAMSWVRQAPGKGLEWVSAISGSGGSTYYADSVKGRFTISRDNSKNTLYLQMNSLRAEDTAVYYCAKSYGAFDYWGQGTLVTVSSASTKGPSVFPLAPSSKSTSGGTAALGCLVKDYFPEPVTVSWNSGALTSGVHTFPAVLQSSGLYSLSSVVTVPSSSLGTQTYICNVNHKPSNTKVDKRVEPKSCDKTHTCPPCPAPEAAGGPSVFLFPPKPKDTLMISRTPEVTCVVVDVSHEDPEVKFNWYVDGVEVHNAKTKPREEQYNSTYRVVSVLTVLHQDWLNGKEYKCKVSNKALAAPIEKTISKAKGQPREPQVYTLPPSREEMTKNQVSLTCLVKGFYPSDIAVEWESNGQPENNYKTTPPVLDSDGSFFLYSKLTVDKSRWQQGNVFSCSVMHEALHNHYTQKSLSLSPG
light 1: B2 light 1 with T31E, E33A, S98G, T99S, R100K, F101I, A102G
light 2: not shown
notes: κλ-body, huIgG1-LALAPA; also called AI10 (AI_1B6) kappa / O30 (O1b6_1D1) lambda
B9: AI10O35/N (bispecific antibody, human IgG1, kappa, lambda, L234A L235A)
heavy: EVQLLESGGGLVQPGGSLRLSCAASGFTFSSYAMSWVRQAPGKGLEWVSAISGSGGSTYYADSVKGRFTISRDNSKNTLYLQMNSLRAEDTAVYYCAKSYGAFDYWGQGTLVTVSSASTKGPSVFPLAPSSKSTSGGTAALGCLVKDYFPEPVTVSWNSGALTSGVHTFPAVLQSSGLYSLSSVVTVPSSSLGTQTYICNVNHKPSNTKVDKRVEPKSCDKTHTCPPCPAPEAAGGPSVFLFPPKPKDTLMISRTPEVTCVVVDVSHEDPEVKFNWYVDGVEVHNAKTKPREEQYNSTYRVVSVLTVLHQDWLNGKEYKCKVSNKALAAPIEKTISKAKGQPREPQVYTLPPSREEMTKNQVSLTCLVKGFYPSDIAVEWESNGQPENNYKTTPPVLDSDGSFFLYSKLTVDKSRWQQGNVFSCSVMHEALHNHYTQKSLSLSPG
light 1: B2 light 1 with T31E, E33A, S98G, T99S, R100K, F101I, A102G
light 2: B5 light 2
notes: κλ-body, huIgG1-LALAPA; also called AI10 (AI_1B6) kappa / O35 (Ob8_A10) lambda
B10: AI3O41/N (bispecific antibody, human IgG1, kappa, lambda, L234A L235A)
heavy: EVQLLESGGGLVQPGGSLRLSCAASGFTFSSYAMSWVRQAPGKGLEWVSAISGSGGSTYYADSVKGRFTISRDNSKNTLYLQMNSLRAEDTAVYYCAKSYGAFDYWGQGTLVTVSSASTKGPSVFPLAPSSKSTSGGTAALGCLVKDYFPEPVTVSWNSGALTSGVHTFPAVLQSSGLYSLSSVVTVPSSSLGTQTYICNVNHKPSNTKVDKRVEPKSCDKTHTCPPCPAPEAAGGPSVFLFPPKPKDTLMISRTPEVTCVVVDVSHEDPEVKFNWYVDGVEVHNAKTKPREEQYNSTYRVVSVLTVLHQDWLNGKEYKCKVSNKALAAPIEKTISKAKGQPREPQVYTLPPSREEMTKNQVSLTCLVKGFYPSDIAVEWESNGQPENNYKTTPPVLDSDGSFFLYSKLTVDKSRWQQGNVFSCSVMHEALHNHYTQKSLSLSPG
light 1: not shown
light 2: B6 light 2
notes: κλ-body, IgG1 LALAPA; also called AI3 (AI_1H5) kappa / O41 (Ob9_1A11) lambda
B11: AI3O35/N (bispecific antibody, human IgG1, kappa, lambda, L234A L235A)
heavy: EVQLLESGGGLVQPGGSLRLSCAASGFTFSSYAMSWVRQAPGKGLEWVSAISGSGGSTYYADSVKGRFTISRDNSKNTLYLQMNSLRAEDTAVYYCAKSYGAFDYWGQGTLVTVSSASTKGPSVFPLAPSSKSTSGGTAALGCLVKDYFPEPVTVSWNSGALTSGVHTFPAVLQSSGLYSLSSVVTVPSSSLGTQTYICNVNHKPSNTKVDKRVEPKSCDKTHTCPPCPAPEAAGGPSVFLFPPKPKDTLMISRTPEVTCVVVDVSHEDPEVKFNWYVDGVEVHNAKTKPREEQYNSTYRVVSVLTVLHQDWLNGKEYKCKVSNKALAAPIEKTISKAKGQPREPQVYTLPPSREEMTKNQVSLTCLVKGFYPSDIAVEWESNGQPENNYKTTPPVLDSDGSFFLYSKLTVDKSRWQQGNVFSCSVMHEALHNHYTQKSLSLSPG
light 1: not shown
light 2: B5 light 2
notes: κλ-body, IgG1 LALAPA; also called AI3 (AI_1H5) kappa / O35 (Ob8_A10) lambda
B12: 1a28/AC84/N (bispecific antibody, human IgG1, kappa, L234A L235A)
heavy 1: QSVLTQPPSVSAAPGQKVTISCSGSSSNIGIGLVSWYQQLPGTAPKLLIYNVNTRPSGIPDRFSGSKSGTSATLGITGLQTGDEADYYCGTWDFSYRVDFGGGTKLTVLSSASTKGPSVFPLAPSSKSTSGGTAALGCLVKDYFPEPVTVSWNSGALTSGVHTFPAVLQSSGLYSLSSVVTVPSSSLGTQTYICNVNHKPSNTKVDKKVEPKSCDKTHTCPPCPAPEAAGGPSVFLFPPKPKDTLMISRTPEVTCVVVDVSHEDPEVKFNWYVDGVEVHNAKTKPREEQYNSTYRVVSVLTVLHQDWLNGKEYKCKVSNKALAAPIEKTISKAKGQPREPQVYTLPPCRDELTKNQVSLWCLVKGFYPSDIAVEWQSNGQTENNYKTTPPVLDSDGSFFLYSKLTVDKSRWQQGNVFSCSVMHEALHNHYTQKSLSLSPG
heavy 2: QVQLQESGPGLVKPSETLSLTCTVSGGSISSYYWSWIRQPPGKGLEWIGYIYYSGITHYNPSLKSRVTISVDTSKIQFSLKLSSVTAADTAVYYCARWGVRRDYYYYGMDVWGQGTTVTVSSASTKGPSVFPLAPSSKSTSGGTAALGCLVEDYFPEPVTVTWNSGALSSGVHTFPAVLQSSGLYSLSSVVTVPSSSLGTQTYICNVNHKPSNTKVDEKVEPKSCDKTHTCPPCPAPEAAGGPSVFLFPPKPKDTLMISRTPEVTCVVVDVSHEDPEVKFNWYVDGVEVHNAKTKPREEQYNSTYRVVSVLTVLHQDWLNGKEYKCKVSNKALAAPIEKTISKAKGQPREPQVCTLPPSRDELTKNQVSLSCAVKGFYPSDIAVEWESNGQPENNYKTTPPVLDSDGSFFLVSKLTVDKSRWQQGNVFSCSVMHEALHNHYTQKSLSLSPG
light 1: not shown
light 2: not shown
notes: LALAPA-mutated huIgG1, 1+1 crossMAb/knobs-into-hole; also called benchmark CEA×CD28 bsAb

The target of the first experiment is T1, human CD28 (human, UniProt P10747 19-220).
T1 construct: whole, on cells; also called huCD28
As to the kind of experiment: worded affinity grade in the in vivo example; no assay named there.
Regarding B1, the binding result is on record as “binds”.
Regarding B2, the binding result is “binds”.
On to B3, for which the binding result was “binds”.

The target in a further experiment is T1, human CD28. As to the kind of experiment: flow cytometry on Jurkat cells. (Flow cytometry measures light scatter and fluorescence of single cells or particles in a stream.)
As to B4, the binding result was “binds”.
Still for that read-out and setting: the entry for B5 is “binds”.
Regarding B6, the binding result was “binds”.
As for B7, the binding result is “binds”.
Take B8: the binding result is on record as “binds”.
As for B9, the binding result is “binds”.
As to B10, the binding result is given as “binds”.
On to B11, for which the binding result is “binds”.

The target in another experiment is T1, human CD28. As to the kind of experiment: flow cytometry on Jurkat cells, reference bsAb.
Regarding B12, the binding result is reported as “binds”.
